In publication PMC4309839, “Functional classification and biochemical characterization of a novel rho class glutathione S-transferase in Synechocystis PCC 6803” (FEBS Open Bio, 2014):

Tested on: O=C(O)C(Cl)Cl
Experiment: purified protein
Format: biochemical, Synechocystis sp. PCC 6803
Conditions: 1 mM GSH, 0.05-1 mM DCA, 100 mM phosphate pH 7.4, 37 °C

Work on “sll1545 (Synechocystis sp. PCC 6803 substr. Kazusa)” yielded a Km of 140 ± 20 µM, a Vmax of 11.8 µmol/min and a kcat of 82.17 ± 0.23 s⁻¹. The kcat/Km was 574600 ± 990 M⁻¹ s⁻¹.
